Results published in patent US20140087995A1 (published 2014).
Numbered stars: 1 amine (or outer) side, 2 acyl side, 3 side chain; on linkers, the order of the positions; unused ones are H or OH. Bridge positions count the residues as written; N and C are the ends. Side chains are listed from the residue outwards. Ends that are not written are not given here. * marks the point of attachment. C20 diacid = O=C(O)CCCCCCCCCCCCCCCCCCC(=O)*; γGlu = O=C(O)[C@H](CCC(=O)[*:2])N[*:1]; AEEA = NCCOCCOCC(=O)O

The binders below were run against T1, human calcitonin receptor (human, UniProt P30988 25-474) (assay: SPA radioligand competition (125I-calcitonin), membranes of BHK cells with human calcitonin receptor).
T1 construct: whole, on cells; Assay used cell membranes of the transfected BHK cells; also called hCTR; hCT
T1 sequence (looked up): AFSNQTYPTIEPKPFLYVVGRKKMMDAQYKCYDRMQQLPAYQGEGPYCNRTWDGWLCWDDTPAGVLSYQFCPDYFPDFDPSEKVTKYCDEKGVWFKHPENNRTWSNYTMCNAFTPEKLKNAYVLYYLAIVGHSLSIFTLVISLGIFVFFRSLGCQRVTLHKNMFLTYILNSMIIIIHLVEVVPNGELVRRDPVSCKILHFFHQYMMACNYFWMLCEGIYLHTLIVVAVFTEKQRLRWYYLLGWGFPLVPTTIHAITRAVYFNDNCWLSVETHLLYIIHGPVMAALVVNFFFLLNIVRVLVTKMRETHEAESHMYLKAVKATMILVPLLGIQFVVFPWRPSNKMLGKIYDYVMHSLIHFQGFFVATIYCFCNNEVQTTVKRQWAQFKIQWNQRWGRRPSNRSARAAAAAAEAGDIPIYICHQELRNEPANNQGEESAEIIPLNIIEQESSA
How it was run: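 BHK hCTR membranes 35 ng/μL + SPA beads 0.05 mg/well; buffer 50 mM Hepes pH 7.4, 1 mM CaCl2, 5 mM MgCl₂, 0.1% OA, 0.02% Tween20. 120 min, 25° C., shaking. Scintillation count; IC50 by one-site binding competition.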

Binder | IC50
K([AEEA-γGlu-C20 diacid])CNTATCATQRLANFLRHSSPNFGAIPSSTPVGSHTY-NH2 (disulfide 2-7; N-terminus assumed; SMILES CC[C@H](C)[C@H](NC(=O)[C@H](C)NC(=O)CNC(=O)[C@H](Cc1ccccc1)NC(=O)[C@H](CC(N)=O)NC(=O)[C@@H]1CCCN1C(=O)[C@H](CO)NC(=O)[C@H](CO)NC(=O)[C@H](Cc1c[nH]cn1)NC(=O)[C@H](CCCNC(=N)N)NC(=O)[C@H](CC(C)C)NC(=O)[C@H](Cc1ccccc1)NC(=O)[C@H](CC(N)=O)NC(=O)[C@H](C)NC(=O)[C@H](CC(C)C)NC(=O)[C@H](CCCNC(=N)N)NC(=O)[C@H](CCC(N)=O)NC(=O)[C@@H](NC(=O)[C@H](C)NC(=O)[C@@H]1CSSC[C@H](NC(=O)[C@@H](N)CCCCNC(=O)COCCOCCNC(=O)CC[C@H](NC(=O)CCCCCCCCCCCCCCCCCCC(=O)O)C(=O)O)C(=O)N[C@@H](CC(N)=O)C(=O)N[C@@H]([C@@H](C)O)C(=O)N[C@@H](C)C(=O)N[C@@H]([C@@H](C)O)C(=O)N1)[C@@H](C)O)C(=O)N1CCC[C@H]1C(=O)N[C@@H](CO)C(=O)N[C@@H](CO)C(=O)N[C@H](C(=O)N1CCC[C@H]1C(=O)N[C@H](C(=O)NCC(=O)N[C@@H](CO)C(=O)N[C@@H](Cc1c[nH]cn1)C(=O)N[C@H](C(=O)N[C@@H](Cc1ccc(O)cc1)C(N)=O)[C@@H](C)O)C(C)C)[C@@H](C)O, Synthetic analogue; also called compound 57) | 15.3 nM
K([AEEA-γGlu-C20 diacid])CNTATCATQRLANFLRHSSPNFGAIPSSTNVGPHTY-NH2 (disulfide 2-7; N-terminus assumed; SMILES CC[C@H](C)[C@H](NC(=O)[C@H](C)NC(=O)CNC(=O)[C@H](Cc1ccccc1)NC(=O)[C@H](CC(N)=O)NC(=O)[C@@H]1CCCN1C(=O)[C@H](CO)NC(=O)[C@H](CO)NC(=O)[C@H](Cc1c[nH]cn1)NC(=O)[C@H](CCCNC(=N)N)NC(=O)[C@H](CC(C)C)NC(=O)[C@H](Cc1ccccc1)NC(=O)[C@H](CC(N)=O)NC(=O)[C@H](C)NC(=O)[C@H](CC(C)C)NC(=O)[C@H](CCCNC(=N)N)NC(=O)[C@H](CCC(N)=O)NC(=O)[C@@H](NC(=O)[C@H](C)NC(=O)[C@@H]1CSSC[C@H](NC(=O)[C@@H](N)CCCCNC(=O)COCCOCCNC(=O)CC[C@H](NC(=O)CCCCCCCCCCCCCCCCCCC(=O)O)C(=O)O)C(=O)N[C@@H](CC(N)=O)C(=O)N[C@@H]([C@@H](C)O)C(=O)N[C@@H](C)C(=O)N[C@@H]([C@@H](C)O)C(=O)N1)[C@@H](C)O)C(=O)N1CCC[C@H]1C(=O)N[C@@H](CO)C(=O)N[C@@H](CO)C(=O)N[C@H](C(=O)N[C@@H](CC(N)=O)C(=O)N[C@H](C(=O)NCC(=O)N1CCC[C@H]1C(=O)N[C@@H](Cc1c[nH]cn1)C(=O)N[C@H](C(=O)N[C@@H](Cc1ccc(O)cc1)C(N)=O)[C@@H](C)O)C(C)C)[C@@H](C)O, Synthetic analogue; also called compound 58) | 9.63 nM
K([AEEA-γGlu-C20 diacid])CNTATCATQRLAHFLRHSSPNFGAIPSSTPVGSNTY-NH2 (disulfide 2-7; N-terminus assumed; SMILES CC[C@H](C)[C@H](NC(=O)[C@H](C)NC(=O)CNC(=O)[C@H](Cc1ccccc1)NC(=O)[C@H](CC(N)=O)NC(=O)[C@@H]1CCCN1C(=O)[C@H](CO)NC(=O)[C@H](CO)NC(=O)[C@H](Cc1c[nH]cn1)NC(=O)[C@H](CCCNC(=N)N)NC(=O)[C@H](CC(C)C)NC(=O)[C@H](Cc1ccccc1)NC(=O)[C@H](Cc1c[nH]cn1)NC(=O)[C@H](C)NC(=O)[C@H](CC(C)C)NC(=O)[C@H](CCCNC(=N)N)NC(=O)[C@H](CCC(N)=O)NC(=O)[C@@H](NC(=O)[C@H](C)NC(=O)[C@@H]1CSSC[C@H](NC(=O)[C@@H](N)CCCCNC(=O)COCCOCCNC(=O)CC[C@H](NC(=O)CCCCCCCCCCCCCCCCCCC(=O)O)C(=O)O)C(=O)N[C@@H](CC(N)=O)C(=O)N[C@@H]([C@@H](C)O)C(=O)N[C@@H](C)C(=O)N[C@@H]([C@@H](C)O)C(=O)N1)[C@@H](C)O)C(=O)N1CCC[C@H]1C(=O)N[C@@H](CO)C(=O)N[C@@H](CO)C(=O)N[C@H](C(=O)N1CCC[C@H]1C(=O)N[C@H](C(=O)NCC(=O)N[C@@H](CO)C(=O)N[C@@H](CC(N)=O)C(=O)N[C@H](C(=O)N[C@@H](Cc1ccc(O)cc1)C(N)=O)[C@@H](C)O)C(C)C)[C@@H](C)O, Synthetic analogue; also called compound 61) | 8.11 nM
K([γGlu-C20 diacid])CNTATCATQRLANFLRHSSPNFGAIPSSTNVGSHTY-NH2 (disulfide 2-7; N-terminus assumed; SMILES CC[C@H](C)[C@H](NC(=O)[C@H](C)NC(=O)CNC(=O)[C@H](Cc1ccccc1)NC(=O)[C@H](CC(N)=O)NC(=O)[C@@H]1CCCN1C(=O)[C@H](CO)NC(=O)[C@H](CO)NC(=O)[C@H](Cc1c[nH]cn1)NC(=O)[C@H](CCCNC(=N)N)NC(=O)[C@H](CC(C)C)NC(=O)[C@H](Cc1ccccc1)NC(=O)[C@H](CC(N)=O)NC(=O)[C@H](C)NC(=O)[C@H](CC(C)C)NC(=O)[C@H](CCCNC(=N)N)NC(=O)[C@H](CCC(N)=O)NC(=O)[C@@H](NC(=O)[C@H](C)NC(=O)[C@@H]1CSSC[C@H](NC(=O)[C@@H](N)CCCCNC(=O)CC[C@H](NC(=O)CCCCCCCCCCCCCCCCCCC(=O)O)C(=O)O)C(=O)N[C@@H](CC(N)=O)C(=O)N[C@@H]([C@@H](C)O)C(=O)N[C@@H](C)C(=O)N[C@@H]([C@@H](C)O)C(=O)N1)[C@@H](C)O)C(=O)N1CCC[C@H]1C(=O)N[C@@H](CO)C(=O)N[C@@H](CO)C(=O)N[C@H](C(=O)N[C@@H](CC(N)=O)C(=O)N[C@H](C(=O)NCC(=O)N[C@@H](CO)C(=O)N[C@@H](Cc1c[nH]cn1)C(=O)N[C@H](C(=O)N[C@@H](Cc1ccc(O)cc1)C(N)=O)[C@@H](C)O)C(C)C)[C@@H](C)O, Synthetic analogue; also called compound 60) [N^ε1-[(4S)-4-carboxy-4-(19-carboxynonadecanoylamino)butanoyl]-[Arg17,Pro21,Pro27,His35]-h-amylin] | 31.4 nM
K([γGlu-C20 diacid])CNTATCATQRLARFLRHSSPNFGAIPSSTPVGSNTY-NH2 (disulfide 2-7; N-terminus assumed; SMILES CC[C@H](C)[C@H](NC(=O)[C@H](C)NC(=O)CNC(=O)[C@H](Cc1ccccc1)NC(=O)[C@H](CC(N)=O)NC(=O)[C@@H]1CCCN1C(=O)[C@H](CO)NC(=O)[C@H](CO)NC(=O)[C@H](Cc1c[nH]cn1)NC(=O)[C@H](CCCNC(=N)N)NC(=O)[C@H](CC(C)C)NC(=O)[C@H](Cc1ccccc1)NC(=O)[C@H](CCCNC(=N)N)NC(=O)[C@H](C)NC(=O)[C@H](CC(C)C)NC(=O)[C@H](CCCNC(=N)N)NC(=O)[C@H](CCC(N)=O)NC(=O)[C@@H](NC(=O)[C@H](C)NC(=O)[C@@H]1CSSC[C@H](NC(=O)[C@@H](N)CCCCNC(=O)CC[C@H](NC(=O)CCCCCCCCCCCCCCCCCCC(=O)O)C(=O)O)C(=O)N[C@@H](CC(N)=O)C(=O)N[C@@H]([C@@H](C)O)C(=O)N[C@@H](C)C(=O)N[C@@H]([C@@H](C)O)C(=O)N1)[C@@H](C)O)C(=O)N1CCC[C@H]1C(=O)N[C@@H](CO)C(=O)N[C@@H](CO)C(=O)N[C@H](C(=O)N1CCC[C@H]1C(=O)N[C@H](C(=O)NCC(=O)N[C@@H](CO)C(=O)N[C@@H](CC(N)=O)C(=O)N[C@H](C(=O)N[C@@H](Cc1ccc(O)cc1)C(N)=O)[C@@H](C)O)C(C)C)[C@@H](C)O, Synthetic analogue; also called compound 63) | 130 nM
K([AEEA-γGlu-C20 diacid])CNTATCATQRLANFLRHSSPNFGAIPSSTNVGPNTY-NH2 (disulfide 2-7; N-terminus assumed; SMILES CC[C@H](C)[C@H](NC(=O)[C@H](C)NC(=O)CNC(=O)[C@H](Cc1ccccc1)NC(=O)[C@H](CC(N)=O)NC(=O)[C@@H]1CCCN1C(=O)[C@H](CO)NC(=O)[C@H](CO)NC(=O)[C@H](Cc1c[nH]cn1)NC(=O)[C@H](CCCNC(=N)N)NC(=O)[C@H](CC(C)C)NC(=O)[C@H](Cc1ccccc1)NC(=O)[C@H](CC(N)=O)NC(=O)[C@H](C)NC(=O)[C@H](CC(C)C)NC(=O)[C@H](CCCNC(=N)N)NC(=O)[C@H](CCC(N)=O)NC(=O)[C@@H](NC(=O)[C@H](C)NC(=O)[C@@H]1CSSC[C@H](NC(=O)[C@@H](N)CCCCNC(=O)COCCOCCNC(=O)CC[C@H](NC(=O)CCCCCCCCCCCCCCCCCCC(=O)O)C(=O)O)C(=O)N[C@@H](CC(N)=O)C(=O)N[C@@H]([C@@H](C)O)C(=O)N[C@@H](C)C(=O)N[C@@H]([C@@H](C)O)C(=O)N1)[C@@H](C)O)C(=O)N1CCC[C@H]1C(=O)N[C@@H](CO)C(=O)N[C@@H](CO)C(=O)N[C@H](C(=O)N[C@@H](CC(N)=O)C(=O)N[C@H](C(=O)NCC(=O)N1CCC[C@H]1C(=O)N[C@@H](CC(N)=O)C(=O)N[C@H](C(=O)N[C@@H](Cc1ccc(O)cc1)C(N)=O)[C@@H](C)O)C(C)C)[C@@H](C)O, Synthetic analogue; also called compound 50) | 1.38 nM
